Measured values taken from PMC6005420, “A low-complexity region in the YTH domain protein Mmi1 enhances RNA binding”.

Key:
Mmi1 YTH [1] = biological target: T1, Mmi1 YTH (Schizosaccharomyces pombe, UniProt O74958 327-488); experiment: SwitchSENSE; conditions: 40 mM NaCl; RNA-DNA chimera: 15-mer DSRshort followed by 42 deoxyribonucleotides; FP: 10 mM TAPS pH 8.2, 2 mM PIPES, 50 or 150 mM NaCl, 0.5 mM MgAc, 0.1 mM TCEP, 0.01% Brij-35, room temperature, 0.1 nM RNA; EMSA: 20 mM HEPES pH 7.5, 100 mM …
T1 sequence: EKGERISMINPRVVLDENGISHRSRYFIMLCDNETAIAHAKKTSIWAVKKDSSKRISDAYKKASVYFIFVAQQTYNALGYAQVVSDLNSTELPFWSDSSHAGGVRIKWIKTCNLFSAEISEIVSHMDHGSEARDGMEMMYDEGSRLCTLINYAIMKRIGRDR

[2] = system: Mmi1 YTH-ΔN (Schizosaccharomyces pombe); experiment: SwitchSENSE; conditions: 40 mM NaCl; RNA-DNA chimera: 15-mer DSRshort followed by 42 deoxyribonucleotides; FP: 10 mM TAPS pH 8.2, 2 mM PIPES, 50 or 150 mM NaCl, 0.5 mM MgAc, 0.1 mM TCEP, 0.01% Brij-35, room temperature, 0.1 nM RNA; EMSA: 20 mM HEPES pH 7.5, 100 mM …
[3] = system: Mmi1 YTH-ΔNΔC (Schizosaccharomyces pombe); experiment: SwitchSENSE; conditions: 40 mM NaCl; RNA-DNA chimera: 15-mer DSRshort followed by 42 deoxyribonucleotides; FP: 10 mM TAPS pH 8.2, 2 mM PIPES, 50 or 150 mM NaCl, 0.5 mM MgAc, 0.1 mM TCEP, 0.01% Brij-35, room temperature, 0.1 nM RNA; EMSA: 20 mM HEPES pH 7.5, 100 mM …
[4] = system: Mmi1 YTH-ΔC (Schizosaccharomyces pombe); experiment: SwitchSENSE; conditions: 40 mM NaCl; RNA-DNA chimera: 15-mer DSRshort followed by 42 deoxyribonucleotides; FP: 10 mM TAPS pH 8.2, 2 mM PIPES, 50 or 150 mM NaCl, 0.5 mM MgAc, 0.1 mM TCEP, 0.01% Brij-35, room temperature, 0.1 nM RNA; EMSA: 20 mM HEPES pH 7.5, 100 mM …
Mmi1 USR-YTH [5] = biological target: T2, Mmi1 USR-YTH (Schizosaccharomyces pombe, UniProt O74958 282-488); experiment: SwitchSENSE; conditions: 40 mM NaCl; RNA-DNA chimera: 15-mer DSRshort followed by 42 deoxyribonucleotides; FP: 10 mM TAPS pH 8.2, 2 mM PIPES, 50 or 150 mM NaCl, 0.5 mM MgAc, 0.1 mM TCEP, 0.01% Brij-35, room temperature, 0.1 nM RNA; EMSA: 20 mM HEPES pH 7.5, 100 mM …
T2 sequence: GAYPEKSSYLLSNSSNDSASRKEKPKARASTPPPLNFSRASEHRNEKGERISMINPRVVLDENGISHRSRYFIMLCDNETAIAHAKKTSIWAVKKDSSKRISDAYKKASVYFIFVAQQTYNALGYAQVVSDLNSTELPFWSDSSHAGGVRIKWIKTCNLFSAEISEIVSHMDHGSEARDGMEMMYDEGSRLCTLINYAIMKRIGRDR

Mmi1 USR-YTH [6] = biological target: T2, Mmi1 USR-YTH; experiment: NMR; FP: 10 mM TAPS pH 8.2, 2 mM PIPES, 50 or 150 mM NaCl, 0.5 mM MgAc, 0.1 mM TCEP, 0.01% Brij-35, room temperature, 0.1 nM RNA; EMSA: 20 mM HEPES pH 7.5, 100 mM NaCl (plus 30 mM from protein buffer), 1 mM MgAc, 0.1 mM TCEP, 5% glycerol, 50 nM RNA, 15 min; SwitchSENSE: 40 mM NaCl; conditions: protein: recombinant; tags: N-terminal His6, 3C-cleaved
Mmi1(301-488) = biological target: T3, Mmi1(301-488) (Schizosaccharomyces pombe, UniProt O74958 301-488); experiment: X-ray crystallography; FP: 10 mM TAPS pH 8.2, 2 mM PIPES, 50 or 150 mM NaCl, 0.5 mM MgAc, 0.1 mM TCEP, 0.01% Brij-35, room temperature, 0.1 nM RNA; EMSA: 20 mM HEPES pH 7.5, 100 mM NaCl (plus 30 mM from protein buffer), 1 mM MgAc, 0.1 mM TCEP, 5% glycerol, 50 nM RNA, 15 min; SwitchSENSE: 40 mM NaCl; conditions: protein: recombinant; tags: N-terminal His6, 3C-cleaved
T3 sequence: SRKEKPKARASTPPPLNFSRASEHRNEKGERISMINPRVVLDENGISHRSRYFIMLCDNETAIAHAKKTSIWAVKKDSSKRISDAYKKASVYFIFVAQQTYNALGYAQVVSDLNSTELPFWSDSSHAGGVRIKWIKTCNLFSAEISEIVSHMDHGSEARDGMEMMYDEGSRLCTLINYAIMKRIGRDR

Mmi1 USR-YTH [7] = biological target: T2, Mmi1 USR-YTH; experiment: EMSA; FP: 10 mM TAPS pH 8.2, 2 mM PIPES, 50 or 150 mM NaCl, 0.5 mM MgAc, 0.1 mM TCEP, 0.01% Brij-35, room temperature, 0.1 nM RNA; EMSA: 20 mM HEPES pH 7.5, 100 mM NaCl (plus 30 mM from protein buffer), 1 mM MgAc, 0.1 mM TCEP, 5% glycerol, 50 nM RNA, 15 min; SwitchSENSE: 40 mM NaCl; conditions: protein: recombinant; tags: N-terminal His6, 3C-cleaved; label: 3'-fluorescein
Mmi1 YTH [8] = biological target: T1, Mmi1 YTH; experiment: fluorescence polarization; 150 mM NaCl; FP: 10 mM TAPS pH 8.2, 2 mM PIPES, 50 or 150 mM NaCl, 0.5 mM MgAc, 0.1 mM TCEP, 0.01% Brij-35, room temperature, 0.1 nM RNA; EMSA: 20 mM HEPES pH 7.5, 100 mM NaCl (plus 30 mM from protein buffer), 1 mM MgAc, 0.1 mM TCEP, 5% glycerol, 50 nM RNA, 15 min; SwitchSENSE: 40 mM NaCl; conditions: protein: recombinant; tags: N-terminal His6, 3C-cleaved; label: 3'-6-carboxyfluorescein
Mmi1 USR-YTH [9] = biological target: T2, Mmi1 USR-YTH; experiment: as above; conditions: protein: recombinant; tags: N-terminal His6, 3C-cleaved; label: 3'-6-carboxyfluorescein
Mmi1 YTH [10] = biological target: T1, Mmi1 YTH; experiment: fluorescence polarization; 50 mM NaCl; FP: 10 mM TAPS pH 8.2, 2 mM PIPES, 50 or 150 mM NaCl, 0.5 mM MgAc, 0.1 mM TCEP, 0.01% Brij-35, room temperature, 0.1 nM RNA; EMSA: 20 mM HEPES pH 7.5, 100 mM NaCl (plus 30 mM from protein buffer), 1 mM MgAc, 0.1 mM TCEP, 5% glycerol, 50 nM RNA, 15 min; SwitchSENSE: 40 mM NaCl; conditions: protein: recombinant; tags: N-terminal His6, 3C-cleaved; label: 3'-6-carboxyfluorescein
Mmi1 USR-YTH [11] = biological target: T2, Mmi1 USR-YTH; experiment: as above; conditions: protein: recombinant; tags: N-terminal His6, 3C-cleaved; label: 3'-6-carboxyfluorescein

Work on DSRshort-DNA chimera for SwitchSENSE yielded a Kd (Mmi1 YTH [1]) of 16 nM, a Kd [2] of 15000 nM and a Kd [3] of 51000 nM. For the same molecule, the Kd [4] was 160 nM and the Kd (Mmi1 USR-YTH [5]) was 0.09 nM.

UUAAACC (ssRNA) [7-mer DSR RNA]: binds (Mmi1 USR-YTH [6]); binds (Mmi1(301-488)).

GUGUCUCUUUAAACCUAAAAAGCAC (ssRNA) [rec8DSR]: binds (Mmi1 USR-YTH [7]).

UCUUAAACCAGUCAC (ssRNA) [DSRshort (15-mer)] showed a Kd (Mmi1 YTH [8]) of 154 ± 85 nM, a Kd (Mmi1 USR-YTH [9]) of 6.1 ± 0.7 nM and a Kd (Mmi1 YTH [10]) of 42 ± 18 nM. The Kd (Mmi1 USR-YTH [11]) was 0.14 ± 0.01 nM.

CUUUAAACCUA (ssRNA) [11-mer DSR RNA]: binds (Mmi1(301-488)).
